Results from the supplement of paper PMC12764529.
± gives the half width of the 95% confidence interval.

What was measured:
[1] = folding stability dG unfold from chymotrypsin proteolysis; higher = more stable
In short: (§1)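 Unfolding free energy was derived, per protease or combined, against a sequence-predicted unfolded-state K50 and a shared folded-state K50, starting from K50 inferred by Bayesian fitting of sequencing counts. Digestion with trypsin and chymotrypsin was carried out on designed mini-proteins under 80 residues without cysteine in a PA-tagged cDNA display construct. Only designs with AlphaFold2 dimer inter-PAE above 15 were kept.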

[2] = folding stability dG unfold from trypsin proteolysis; higher = more stable
In short: as §1

[3] = folding stability dG unfold (combined trypsin and chymotrypsin); higher = more stable
In short: as §1

Sequence | folding stability dG unfold [1] | folding stability dG unfold [2] | folding stability dG unfold [3]
SAGKTIVIKAKTAEEAINALLKELKKKGEKVKITVTVYDKNGKEVYRVTIEIDPKEKGKIKIKVEKVPSAGG [r19_85_TrROS_Hall] | 3.65 ± 0.2 kcal/mol | 2.19 ± 0.22 kcal/mol | 3.33 ± 0.44 kcal/mol
SAGGSAGGSATTVTVESDPATGTRFVYETDEKNPGLLKVTKVTTLPDGSVVVETGYISPEKLSAGGSAGGSA [r18_505_JUSTAS] | 1.74 ± 0.043 kcal/mol | 1.45 ± 0.051 kcal/mol | 1.61 ± 0.11 kcal/mol
SAGGKTIMIMFTPDNAEEIAETIVDEFGYDVKIEKVQPMPMKDPDGKQKAPYYMIEIEIKVPDPGQPLSAGG [r13_943_TrROS] | -0.282 ± 0.22 kcal/mol | 0.945 ± 0.033 kcal/mol | 0.505 ± 0.094 kcal/mol
SAGGRIVEAAKEAGLDGVDLKEIRPLPDGGVEIRILPPPGMPEEAAAEAAERIERALREEFPDTRIDTESAG [r5_101_TrMRF] | 0.207 ± 0.056 kcal/mol | -0.835 ± 0.33 kcal/mol | -0.209 ± 0.31 kcal/mol
SAGGSAGGSAGEPIKGIIRVYNPETGEVTDIELEFKTLEEALAFAASLPPTVARVEIVFASAGGSAGGSAGG [r11_25_TrMRF] | 3.002 ± 0.03 kcal/mol | 1.6 ± 0.059 kcal/mol | 2.66 ± 0.095 kcal/mol
SAGGSAGGPVITFPWNDIPELLERARENGDPEYYIRVSPDDPGNFTIMPPEEAEENGMPVIPLDSAGGSAGG [r6_710_TrROS] | -0.656 ± 0.46 kcal/mol | -0.976 ± 0.45 kcal/mol | -0.668 ± 0.33 kcal/mol
SAGGSAGGSKEKVIEIKIKVKTKEEAKKKAEELAKELEKKGYKIKKVEIKYDKETKEVTVRIESAGGSAGGS [r20_155_TrROS_Hall] | 4.02 ± 0.097 kcal/mol | 3.9 ± 0.2 kcal/mol | 3.95 ± 0.12 kcal/mol
SAGFSIVEVEPDEDTYTITIEYTLPNGTVKTKDLPLKAKNPVLLEISENEITIYLPDTNEVVTLPVSLISAG [r14_947_JUSTAS] | 1.74 ± 0.16 kcal/mol | 1.92 ± 0.087 kcal/mol | 1.87 ± 0.29 kcal/mol
SAGGSARWFLIRIEFVFGGEPRTFSVLIDVDPGEIEIEIPPELQKKGFQIKDIEIWPLPPEDLKKLSAGGSA [r15_853_TrROS] | 3.18 ± 0.11 kcal/mol | 2.22 ± 0.04 kcal/mol | 2.84 ± 0.18 kcal/mol
SAGGFLENLPDEVVEAALAAVLPDGSRVFVALRKGPDRPRVLIITFDANGVPRDIRELDPEEALKALEASAG [r5_73_TrMRF] | 2.75 ± 0.028 kcal/mol | 2.48 ± 0.042 kcal/mol | 2.68 ± 0.034 kcal/mol
SAGGSAGGSAEPDIEVVVTPVPGPYGPLYYRVEVRIPEAGRTVFTYARLDDPEEIEGIPIESAGGSAGGSAG [r3_432_TrMRF] | 0.545 ± 0.16 kcal/mol | 0.829 ± 0.066 kcal/mol | 0.7 ± 0.077 kcal/mol
SAGGSAGGSAGGLEKLVELLAPGKPLEVLRIDPTPTYVRIVVRHPDYPVDTVILADPDVISAGGSAGGSAGG [r7_303_TrMRF] | -0.617 ± 0.11 kcal/mol | 0.237 ± 0.046 kcal/mol | -0.0768 ± 0.051 kcal/mol
SAGGPEVEAERFGDTVLVRITLLDPETGEPYEFLAIATRRPDGTVTVTIIHPDGRPSTIPLPLLPLASAGGS [r16_154_TrMRF] | 1.88 ± 0.039 kcal/mol | 2.63 ± 0.16 kcal/mol | 2.26 ± 0.14 kcal/mol
SMEKVKAKPAGEVTFVFDNEDPSLTPEQQVELVEKELEKLPELKIYEVEAEVDLETGKVTIKVKLLVEEVSA [r9_1001_TrMRF] | 1.26 ± 0.11 kcal/mol | -0.41 ± 0.28 kcal/mol | 0.814 ± 0.22 kcal/mol
SAGGMMKYVVRIKIYNENGEEVKEIEIEIEMSEEEVEELARKLAEKLAEELGVEVKIVEVEIEKLEPSAGGS [r16_140_TrROS_Hall] | 4.28 ± 0.2 kcal/mol | 4.4 ± 0.37 kcal/mol | 4.39 ± 0.25 kcal/mol
SATKEIEIEVNGRKLRIRIERKEDGSIKITIELPGMSAEEVKEALRKLLPPDAKITVDEITVTEYREEPSAG [r14_370_TrROS_Hall] | 2.43 ± 0.17 kcal/mol | 3.14 ± 0.17 kcal/mol | 2.84 ± 0.3 kcal/mol
SAGMVTTTTVTFPNGATMTVTTHSSGIITIEATSEEDARAFLEAQGLPLTSREVLPDGTYRFTAVVPPSAGG [r19_257_JUSTAS] | 4.53 ± 0.057 kcal/mol | 4.61 ± 0.13 kcal/mol | 4.52 ± 0.062 kcal/mol
SAGGSAGGMEIRIEKDENGFLRLKVINKKTKKETEIEIPVEDEDALKKLLDAGVERVEIEPLPPSAGGSAGG [r6_639_TrROS_Hall] | 1.34 ± 0.08 kcal/mol | 0.399 ± 0.13 kcal/mol | 1.14 ± 0.21 kcal/mol
SAGNVVETEEKPVESPLPRKATLTTLTSPTPGVTFRVFTSPENVTTVEVETDGRTETLEPAEAEALLASSAG [r5_157_JUSTAS] | -0.995 ± 0.3 kcal/mol | -1.35 ± 0.58 kcal/mol | < -1 kcal/mol
SAGGARFEFTTPEGDRVTVELETTADELRVRVTVHRENEPFTLEATFPLPPPAPPAVPADVPGPSLLLSAGG [r13_691_TrMRF] | 1.62 ± 0.089 kcal/mol | 2.06 ± 0.15 kcal/mol | 1.91 ± 0.21 kcal/mol
SAKKYIIRVKVKINGKEYEIEIEADSLEEALAKLKEELKKLFPGEKIEEVKIEVYDAKTGEKKEITLKLSAG [r14_54_TrROS_Hall] | 4.2 ± 0.16 kcal/mol | 2.76 ± 0.12 kcal/mol | 4 ± 0.35 kcal/mol

Sequence | folding stability dG unfold [1] | folding stability dG unfold [2] | folding stability dG unfold [3]
SAEERVFLVPVERRPDGSVRLRFVRPDRVVELELPAGFTVEDALQALSAHPDLRVEVLEAHPDLVLVRGSAG [r14_404_TrMRF] | 2.741 ± 0.023 kcal/mol | 1.824 ± 0.017 kcal/mol | 2.46 ± 0.054 kcal/mol
SAGGSAGGSADWQKLEYPFPPGMPLDNIKEELRDLFPGKKPTIEIDKIEPHNGQYWIKITVKSAGGSAGGSA [r18_360_TrROS] | 0.0785 ± 0.15 kcal/mol | 0.42 ± 0.047 kcal/mol | 0.291 ± 0.075 kcal/mol
SAGGSAGGSAGMKVLVLRIRIERPEEELSEEDRAKLPPVRIEIELVEVELPPEVEVREEESAGGSAGGSAGG [r17_310_TrROS_Hall] | 3.86 ± 0.11 kcal/mol | 2.44 ± 0.14 kcal/mol | 3.43 ± 0.2 kcal/mol
SAGGSASMSKTTTETSPDSETTTTTYYPNGTVTTTKTTTVGEGTTTTTTTTKVLFIPGPGVLVPEPSAGGSA [r15_746_JUSTAS] | 0.514 ± 0.062 kcal/mol | -0.174 ± 0.045 kcal/mol | 0.259 ± 0.046 kcal/mol
SAGGSKPILKIKITIYRIDKNGKLIKKIELTLPPLTEEQLKKLLEALKKLPKDVKIVEVKIELVEPSAGGSA [r2_75_TrROS_Hall] | 4.54 ± 0.26 kcal/mol | 3.49 ± 0.32 kcal/mol | 4.16 ± 0.31 kcal/mol
SAGGSAGGSKELLKNLPPGAKITVEKKEDGTVRITITNKDGSEKEIEIKVNGKIIKLTIKKKPSAGGSAGGS [r20_50_TrROS_Hall] | 0.245 ± 0.42 kcal/mol | 2.04 ± 0.098 kcal/mol | 1.04 ± 0.32 kcal/mol
SAGGSAGGMIPVKTTETTTLPDGSTVVTESLTIIDPTSNTSTTTTLKTTIINTSTGTTIPPSSLSAGGSAGG [r6_866_JUSTAS] | 0.319 ± 0.073 kcal/mol | 1.38 ± 0.032 kcal/mol | 1 ± 0.079 kcal/mol
SAFKIERDPGNGQRKIKIEIPIIFPMGPEMRNMFKNMIKQWLAKHNPNVDIEIDIIPVKSPEQALEQIGSAG [r14_406_TrROS] | 2.61 ± 0.3 kcal/mol | 1.48 ± 0.15 kcal/mol | 1.98 ± 0.47 kcal/mol
SAGGSAGGSAKYLVVGGKVIEIPSGGDAKIETTKDDRVKVTIDLPDDRKLEFTFPVPKWVGSAGGSAGGSAG [r3_207_TrMRF] | 0.215 ± 0.099 kcal/mol | 0.514 ± 0.029 kcal/mol | 0.408 ± 0.07 kcal/mol
SAGGSAGGSKKKITRIVITDFDPETGKVTVRIRNENGEEETIEVETLEELKELFPDVEVEVIPSAGGSAGGS [r12_403_TrROS_Hall] | 2.09 ± 0.044 kcal/mol | 2.45 ± 0.049 kcal/mol | 2.24 ± 0.059 kcal/mol
SAGSMRTRKYEVERGEDEIVFPLPDGKVLRLPPDVGATVEVEYDPDGPPVRVTVRFPDGADYVLPYEELSAG [r5_45_JUSTAS] | 1.11 ± 0.15 kcal/mol | -0.531 ± 0.45 kcal/mol | 0.69 ± 0.15 kcal/mol
MRVVFEATYTDPEGVPVTETFVIPEEVLEEIEREGRPITREELVELAEEIIRDYTKEHDADVEFRFVEFEPS [r1_174_TrMRF] | 2.52 ± 0.025 kcal/mol | 1.91 ± 0.086 kcal/mol | 2.27 ± 0.1 kcal/mol
SAGDKKTIELWFMFKTPEEARHEADSIARRLAEEGLTIKVELKDIEPMPDPDGEKYYMFEFKVTIQLPNSAG [r5_158_TrROS] | 3.28 ± 0.12 kcal/mol | 2.55 ± 0.062 kcal/mol | 3.06 ± 0.14 kcal/mol
SAGGSAMPADEVVEVREITDPATGKKVTVVRNKETGRYFVRVENPDGETEVFEVPGMTAEELEELASAGGSA [r15_295_TrROS_Hall] | 2.6 ± 0.051 kcal/mol | 2.33 ± 0.056 kcal/mol | 2.51 ± 0.1 kcal/mol
SAVPLSEEELEALLEEKAKEKAEEILKENPELPPGAVIKIKVEYEQEVVLEDKVEPVKYEREVEYKVPLSAG [r14_486_JUSTAS] | -0.503 ± 0.76 kcal/mol | 0.00158 ± 0.12 kcal/mol | -0.0614 ± 0.44 kcal/mol
SAGGSAGGSAGKPVLKLTVTLPNGLTVTVTINPDGEITVEIRPLPPPPPPVRTYSDEELKSAGGSAGGSAGG [r11_1015_TrROS_Hall] | 2.75 ± 0.16 kcal/mol | 2.29 ± 0.19 kcal/mol | 2.1 ± 0.31 kcal/mol
SAGGSAGGPNIRIIIKPDPENGTLKIWFVHPEPGRIQKYEFNMNGKWKIKEPVGPMKPGDPGLLSAGGSAGG [r6_149_TrROS] | 1.52 ± 0.33 kcal/mol | 0.668 ± 0.16 kcal/mol | 1.33 ± 0.34 kcal/mol
SAGGSAGGSVVPVKAVFKLPDGDEVEGLALVDNRPDGSLVVLFQLPGTGETVGSATAELLKVEGSAGGSAGG [r6_254_TrMRF] | 0.727 ± 0.1 kcal/mol | 0.523 ± 0.032 kcal/mol | 0.638 ± 0.11 kcal/mol
SAGRIEVYQDPNMLRVIEIPLPNGREIVIYRPPGYYHIEIENPNNNKQIPIMIPMEPGDIKKIIKEFINSAG [r5_820_TrROS] | 1.38 ± 0.081 kcal/mol | 1.18 ± 0.046 kcal/mol | 1.33 ± 0.11 kcal/mol
SAGGSAGGSSSSSVVTKPLPEEPLLVVTTTLPPSTPPGTTSTTTIIEPETGKVLETTDINIPSSAGGSAGGS [r12_564_JUSTAS] | 0.954 ± 0.1 kcal/mol | 1.92 ± 0.13 kcal/mol | 1.41 ± 0.11 kcal/mol
SAGGSAKKVRIEIERNADGTLRITVTLPDGTKKEITVDKPGMTLEEIAKKLGLPEGAEITEIERVPSAGGSA [r15_167_TrROS_Hall] | 2.71 ± 0.035 kcal/mol | 2.97 ± 0.067 kcal/mol | 2.83 ± 0.075 kcal/mol
